“Also recorded” adds a separate entry of the source.
Assays:
β2AR [1] = experiment: Size exclusion chromatography of nanobody with purified detergent-solubilized β2AR; format: binding, human; details: 20 μM β2AR bound to an agonist, 40 μM nanobody
Experimental: The mixture was then analyzed by Size Exclusion Chromatography (SEC), which separates protein on the basis of size. Seven of the nanobodies bound to purified β2AR and migrated as a complex on SEC only in the presence of agonist and not an inverse agonist (an example is shown in FIG. 1, Panel a, FIG. 3 and FIG. 4).
Agonist selective nanobodies were identified by size exclusion chromatography following incubation of 20 μM agonist or inverse agonist- (carazolol-) bound β2AR-365N for one hour at RT in the absence or presence of 40 μM nanobody.

β2AR [2] = target: T1, β2AR (Homo sapiens, UniProt P07550); experiment: [3H]-DHA competition binding on Sf9 insect cell membranes expressing β2AR, with or without nanobody; set-up: recombinant β2AR truncated at Gly365 (β2AR-365); made in house; host or cells: Sf9 insect cells (membranes); details: agonist competition binding with versus without nanobody
Excerpt: Panel b: Dose-response competition binding experiments on Sf9 insect cell membranes expressing β2AR.

β2AR [3] = target: T1, β2AR; experiment: Monobromobimane (mBBr) fluorescence of labeled purified β2AR; format: biochemical; details: for mBBr fluorescence change of isoproterenol-bound β2AR with nanobody (active state): 1 μM nanobody plus full agonist isoproterenol
Excerpt: To investigate the effect of nanobodies on movement of the cytoplasmic domain of TM6 we labeled purified β2AR at C265 with monobromobimane (mBB-β2AR). […] In mBB-β2AR, the addition of agonist together with G protein results in larger fluorescent changes than either agonist or G protein alone. This is compatible with the cooperative interactions observed in agonist competition binding assays (Yao et al. 2009).
Purified β2AR was reacted with 1:1 equivalent of monobromobimane (mBBr, Invitrogen) in 100 mM NaCl, 20 mM HEPES, pH 7.5, 0.1% dodecyl maltoside and incubated overnight on ice in the dark. The fluorophore-labeled receptor was purified right before use by gel filtration on a desalting column equilibrated with the same buffer. […] All experiments were performed at 25° C. […] To determine the effect of nanobodies and ligands, three individual labeled protein samples were incubated with 1 μM nanobody or 10 μM Isoproterenol or both. Emission spectra of the samples were taken after 1 hour incubation.

β2AR-T4L = experiment: [3H]-DHA competition binding on β2AR-T4L reconstituted in HDL particles; set-up: species or system human
β2AR [4] = target: T1, β2AR; experiment: [3H]-DHA competition binding on β2AR reconstituted in HDL particles; set-up: recombinant β2AR truncated at Gly365 (β2AR-365); made in house; host or cells: Sf9 insect cells (membranes)
β2AR [5] = target: T1, β2AR; experiment: Fluorescent (CPM) thermal stability assay of detergent-solubilized β2AR
Experimental: (§1) The effect of conformational selective nanobodies on the thermostability and the subsequent aggregation of the β2AR receptor was analyzed using a fluorescent thermal stability assay (FIG. 13) and size exclusion chromatography (FIG. 14).
The fluorescent thermal stability assay makes use of the thiol-specific fluorochrome N-[4-(7-diethylamino-4-methyl-3-coumarinyl)phenyl]maleimide (CPM) to measure the chemical reactivity of the native cysteines embedded in the protein interior as a sensor for the overall integrity of the folder state of membrane proteins (Alexandrov et al. 2008). For the fluorescent thermal stability assay, detergent-solubilized receptor (in 0.1% dodecylmaltoside, 100 mM NaCl and 20 mM Hepes pH 7.5) was pre-incubated with isoproterenol (10 μM) in the presence or absence of a 2:1 molar excess of Nb80 for one hour at RT. Samples were then mixed with CPM fluorophore and incubated for two minutes at temperatures ranging from 10° C. to 94° C. and fluorescence emission was collected. […] Unfolding transitions could be described by a simple two-state model, including the native (folded) and the denaturated state, representing the lower and upper plateaus of the melting curves.

human β1AR = human β1AR (Homo sapiens, UniProt P08588); experiment: [3H]-DHA competition binding on β1AR with and without Nb80
Sequence of human β1AR (P08588 whole entry): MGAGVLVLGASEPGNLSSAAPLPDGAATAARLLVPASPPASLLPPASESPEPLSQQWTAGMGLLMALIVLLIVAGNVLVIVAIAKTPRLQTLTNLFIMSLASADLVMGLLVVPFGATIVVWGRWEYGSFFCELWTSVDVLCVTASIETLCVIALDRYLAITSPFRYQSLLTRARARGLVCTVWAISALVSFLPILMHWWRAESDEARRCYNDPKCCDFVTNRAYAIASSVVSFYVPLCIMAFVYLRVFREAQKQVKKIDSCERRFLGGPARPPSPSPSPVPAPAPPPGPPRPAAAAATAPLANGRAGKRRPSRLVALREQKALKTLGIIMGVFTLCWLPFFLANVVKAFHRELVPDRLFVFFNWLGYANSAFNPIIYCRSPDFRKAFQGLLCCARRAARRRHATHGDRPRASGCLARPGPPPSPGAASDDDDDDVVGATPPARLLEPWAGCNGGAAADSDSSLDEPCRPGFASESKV
Excerpt: Active state stabilizing Nanobodies that are cross-reactive to related receptors can be used as a tool to stabilize a conformational state of those related receptors. […] Using the PISA server (Krissinel & Henrick, 2007) and based on the crystal structure of the Nb80-β2AR complex, 30 β2AR AA residues were identified to interact with Nb80 in the β2AR-Nb80 interface. […] The remaining interface residues are lysines in β2AR and have been substituted by arginines in β1AR corresponding to conserved substitutions (shown in grey boxes in FIG. 17). It thus appears that both receptors share a very similar binding site for Nb80. Based on this analysis, we also measured the effect of Nb80 on the affinity of […] for the agonist isoproterenol and the inverse agonist CGP20712A (FIG. 18).

[6] = Effect of Nb80 on ligand affinity of an unrelated receptor; format: binding; details: data not shown
β2AR [7] = target: T1, β2AR; experiment: Temperature-induced aggregation of β2AR analyzed by SEC; details: DDM-solubilized β2AR, 10 μM isoproterenol, 2:1 molar excess of Nb80, 10 minutes at increasing temperatures
Experimental: as §1
We also analyzed the effect of Nb80 on the thermal unfolding and aggregation of the agonist-bound receptor by size exclusion chromatography (SEC). For this experiment, dodecylmaltoside-solubilized receptor was pre-incubated with isoproterenol (10 μM) in the presence or absence of a 2:1 molar excess of Nb80 for 45 minutes at RT. Samples were next incubated for 10 minutes at increasing temperatures and subsequently analyzed by SEC (FIG. 14).

β2AR [8] = target: T1, β2AR; experiment: Bimane fluorescence spectroscopy on mBB-β2AR reconstituted in HDL particles; details: Nb80 with 10 μM isoproterenol
β2AR [9] = target: T1, β2AR; experiment: Competition radioligand binding on commercial insect cell membranes with full-length human β2AR, Nb80 versus irrelevant Nb; details: radioligand displacement with Nb80 versus irrelevant Nanobody

B1: NB65: β2AR-specific nanobody, SEQ ID NO:5 (protein, listed as Lama glama)
VHH: QVQLQESGGGLVQAGGSLRLSCAASGSIFSINTMGWYRQAPGKQRELVAAIHSGGSTNYADSVRGRFTISRDNAKNTVYLQMNSLKPEDTAVYYCNVKDYGAVLYEYDYWGQGTQVTVSS
- Complex formation with agonist-bound β2AR on SEC (β2AR [1]): complex formation
- Enhancement of β2AR affinity for the agonist isoproterenol in the presence of the nanobody (β2AR [2]): two- to thirty-fold
- mBBr fluorescence change of isoproterenol-bound β2AR with nanobody (active state) (β2AR [3]; listed as 65): Comparable results; also recorded: stabilize a more active state

B2: NB80: β2AR-specific nanobody, SEQ ID NO:4; lead nanobody stabilizing the active state (protein, listed as Lama glama)
VHH: QVQLQESGGGLVQAGGSLRLSCAASGSIFSINTMGWYRQAPGKQRELVAAIHSGGSTNYANSVKGRFTISRDNAANTVYLQMNSLKPEDTAVYYCNVKDYGAVLYEYDYWGQGTQVTVSS
- Increase of isoproterenol affinity in the presence of Nb80 (β2AR-T4L; β2AR-T4L/HDL with Nb80 versus without): 60 fold
- Effect of Nb80 on affinity for the inverse agonist ICI-118,551 (β2AR-T4L; β2AR-T4L/HDL, ICI-118,551 competing against [3H]-DHA): does not increase the affinity
- Complex formation with agonist-bound β2AR on SEC (β2AR [1]): β2AR-agonist-Nb80 complex formation
- Enhancement of β2AR affinity for the agonist isoproterenol in the presence of the nanobody (β2AR [2]): two- to thirty-fold
- Increase of isoproterenol affinity in the presence of Nb80 (β2AR [4]; β2AR/HDL with Nb80 versus without): 95 fold
- Effect of Nb80 on affinity for the inverse agonist ICI-118,551 (β2AR [4]; β2AR/HDL, ICI-118,551 competing against [3H]-DHA): does not increase the affinity; also recorded: little effect
- Apparent melting temperature for β2AR with Nb80 (β2AR [5]; DDM-solubilized, isoproterenol-bound β2AR, 2:1 molar excess of Nb80): 24 °C
- Increase of the melting temperature (Tm) of the agonist-bound receptor (β2AR [5]; isoproterenol (10 μM)-bound β2AR with versus without Nb80): 12 °C
- Conformational selectivity of Nb80 binding to human β1AR (human β1AR): selectively binds the active conformation
- Effect of Nb80 on affinity of the agonist isoproterenol for β1AR (human β1AR; [3H]-DHA competition): increased affinity
- Effect of Nb80 on β1AR affinity for CGP20712A (human β1AR; [3H]-DHA competition): does not change the affinity
- Effect of Nb80 on unrelated receptors [6]: No such effect
- Effect on temperature-induced aggregation of the agonist-bound receptor (β2AR [7]): protects the agonist-bound receptor against temperature-induced aggregation
- Effect on bimane fluorescence in the presence of isoproterenol (β2AR [8]): increased
- Effect of Nb80 on β2AR affinity for agonists and antagonists (β2AR [9]): increases β2AR affinity for agonists but not for antagonists
- mBBr fluorescence change of isoproterenol-bound β2AR with nanobody (active state) (β2AR [3]): larger changes were observed when both agonist and nanobody were added together; also recorded: stabilizes a more active state
- mBBr fluorescence change of β2AR with nanobody alone (β2AR [3]; Nb80 alone, no agonist): relatively small changes in fluorescence

B3: NB84: β2AR-specific nanobody, probably CA2784, SEQ ID NO:29; CA3484 carries the same short notation (protein, listed as Lama glama)
VHH: QVQLQESGGGLVQAGGSLRLSCAASGSIFSINAMGWYRQAPGKQRELVAAITSGGSTTYADSVKGRFTVSRDNAKNTVYLQMIRLKPEDTAVYYCHVRDIYSDFLGQYEYDYWGQGTQVTVSS
- Complex formation with agonist-bound β2AR on SEC (β2AR [1]): complex formation
- Enhancement of β2AR affinity for the agonist isoproterenol in the presence of the nanobody (β2AR [2]): two- to thirty-fold
- mBBr fluorescence change of isoproterenol-bound β2AR with nanobody (active state) (β2AR [3]; listed as 84): Comparable results; also recorded: stabilize a more active state

B4: NB72: β2AR-specific nanobody, probably CA2772, SEQ ID NO:24; CA3472 carries the same short notation (protein, listed as Lama glama)
VHH: QVQLQESGGGLVQPGGSLRLSCAASGFTFSGYAMNWVRQAPGKGPEWVSAINSGGGSTSYADSVKGRFTISRDNAKNTVYLQMNSLKPEDTAVYYCHARDIYSDFLGQYEYDYWGQGTQVTVSS
- Complex formation with agonist-bound β2AR on SEC (β2AR [1]): complex formation
- Enhancement of β2AR affinity for the agonist isoproterenol in the presence of the nanobody (β2AR [2]): two- to thirty-fold
- mBBr fluorescence change of isoproterenol-bound β2AR with nanobody (active state) (β2AR [3]; listed as 72): Comparable results; also recorded: stabilize a more active state

B5: NB71: β2AR-specific nanobody, SEQ ID NO:25 (protein, listed as Lama glama)
VHH: QVQLQESGGGLVQPGGSLRLSCAASGFAFSSYELRWYRQAPGKQHELVAGITTGGNTYYADSVKGRFTISRDNAKNTVYLQMSNLRPEDTAVYACNANWDLLSDYWGQGTQVTVSS
- Complex formation with agonist-bound β2AR on SEC (β2AR [1]): complex formation
- Enhancement of β2AR affinity for the agonist isoproterenol in the presence of the nanobody (β2AR [2]): two- to thirty-fold
- mBBr fluorescence change of isoproterenol-bound β2AR with nanobody (active state) (β2AR [3]; listed as 71): Comparable results; also recorded: stabilize a more active state

B6: NB67: β2AR-specific nanobody, SEQ ID NO:20 (protein, listed as Lama glama)
VHH: QVQLQESGGGLVQAGGSLRLSCAASGTISSFIAMGWYRQSPGKQRELVAGITSGGETNYEDSVKGRFTISRDNAKNTLYLQMNTLKPEDTAVYYCNAQVFADIFNLINYWGQGTQVTVSS
- Complex formation with agonist-bound β2AR on SEC (β2AR [1]): complex formation
- Enhancement of β2AR affinity for the agonist isoproterenol in the presence of the nanobody (β2AR [2]): two- to thirty-fold
- mBBr fluorescence change of isoproterenol-bound β2AR with nanobody (active state) (β2AR [3]; listed as 67): Comparable results; also recorded: stabilize a more active state

B7: NB69: β2AR-specific nanobody, SEQ ID NO:26 (protein, listed as Lama glama)
VHH: QVQLQESGGGLVQPGGSLRLSCAASGSIFSINAMGWYRQAPGKQRDLVASITSGGSTNYADSVKGRFTISRDNAKNTVYLQMNSLKPEDTAVYYCNVQGTGPSSWLFNEYDYWGQGTQVTVSS
- Complex formation with agonist-bound β2AR on SEC (β2AR [1]): complex formation
- Enhancement of β2AR affinity for the agonist isoproterenol in the presence of the nanobody (β2AR [2]): two- to thirty-fold
- mBBr fluorescence change of isoproterenol-bound β2AR with nanobody (active state) (β2AR [3]; listed as 69): Comparable results; also recorded: stabilize a more active state

Source: US20130137856A1, “PROTEIN BINDING DOMAINS STABILIZING FUNCTIONAL CONFORMATIONAL STATES OF GPCRS AND USES THEREOF” (priority 2010, published 2013)
